Source: patent US20200207868A1

Biological target: full-length extracellular region of human FGFR1 (human) (UniProt P11362)
Assay: BLI, target binding to sensor-immobilized Fab

- Kd: 22.4 nM
B1: Library-S Fab against FGFR1 (Fab, V domains shown)
VH: EVQLVESGGGLVQPGGSLRLSCAASGFTFSSYGMHWVRQAPGKGLEWVAVISYDGSNKYYADSVKGRFTISRDNSKNTLYLQMNSLRAEDTAVYYCARSGRYGTYKGDFDYWGQGTLVTVSS
VL: DIQMTQSPSSLSASVGDRVTITCRASQGISNYLAWYQQKPGKAPKLLIYAASSLQSGVPSRFSGSRSGTDFTLTISSLQPEDFATYYCQQSYRSPLTFGQGTKVEIK
